Molecular target: T1, human recombinant protein BiP (TP305859, Origene) (human, UniProt P11021 19-654)
T1 construct: also called purified BiP; source: bought: Origene (TP305859)
Assay: SPR; BScreen LB 991 label-free microarray system; proteins printed on the chip and photo-cross-linked; analyte proteins at 200, 400, 800, 1600 and 3200 nM in 10 mM HEPES pH 7.0, 3 mM EDTA, 150 mM NaCl, 0.005% P20; 5 uL/min, 10 min association, 6 min dissociation; constants by slope fitting
Conditions: both partners purified

T1 sequence (P11021 19-654): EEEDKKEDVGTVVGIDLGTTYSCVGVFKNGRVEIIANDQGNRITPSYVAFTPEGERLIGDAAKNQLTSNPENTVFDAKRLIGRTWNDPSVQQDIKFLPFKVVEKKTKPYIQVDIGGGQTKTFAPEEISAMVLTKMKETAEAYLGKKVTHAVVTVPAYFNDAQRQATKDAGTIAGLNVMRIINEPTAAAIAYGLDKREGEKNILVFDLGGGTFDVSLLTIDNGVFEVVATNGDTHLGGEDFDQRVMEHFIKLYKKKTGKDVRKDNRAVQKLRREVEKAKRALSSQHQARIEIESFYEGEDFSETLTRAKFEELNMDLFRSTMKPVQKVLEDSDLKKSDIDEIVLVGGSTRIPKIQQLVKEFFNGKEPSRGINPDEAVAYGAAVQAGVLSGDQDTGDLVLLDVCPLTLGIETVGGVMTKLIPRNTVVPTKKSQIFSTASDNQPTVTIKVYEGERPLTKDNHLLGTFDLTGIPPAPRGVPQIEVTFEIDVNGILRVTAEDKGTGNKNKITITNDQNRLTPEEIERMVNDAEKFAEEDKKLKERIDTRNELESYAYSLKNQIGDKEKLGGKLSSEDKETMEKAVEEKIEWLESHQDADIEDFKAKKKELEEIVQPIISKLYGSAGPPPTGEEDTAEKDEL

- Kd: 271 nM
B1: human recombinant protein FKBP9 (TP322307, Origene) (natural protein, UniProt O95302 25-570, looked up)
chain: APVAGLGSDAELQIERRFVPDECPRTVRSGDFVRYHYVGTFPDGQKFDSSYDRDSTFNVFVGKGQLITGMDQALVGMCVNERRFVKIPPKLAYGNEGVSGVIPPNSVLHFDVLLMDIWNSEDQVQIHTYFKPPSCPRTIQVSDFVRYHYNGTFLDGTLFDSSHNRMKTYDTYVGIGWLIPGMDKGLLGMCVGEKRIITIPPFLAYGEDGDGKDIPGQASLVFDVALLDLHNPKDSISIENKVVPENCERISQSGDFLRYHYNGTLLDGTLFDSSYSRNRTFDTYIGQGYVIPGMDEGLLGVCIGEKRRIVVPPHLGYGEEGRGNIPGSAVLVFDIHVIDFHNPSDSISITSHYKPPDCSVLSKKGDYLKYHYNASLLDGTLLDSTWNLGKTYNIVLGSGQVVLGMDMGLREMCVGEKRTVIIPPHLGYGEAGVDGEVPGSAVLVFDIELLELVAGLPEGYMFIWNGEVSPNLFEEIDKDGNGEVLLEEFSEYIHAQVASGKGKLAPGFDAELIVKNMFTNQDRNGDGKVTAEEFKLKDQEAKHDEL
notes: also called purified FKBP9; source: bought: Origene (TP322307)
